System: Escherichia coli TOP10
Experiment: shrunken log2 fold change of peptide-encoding DNA abundance (4.5 h post-induction vs induction); higher = less antimicrobial activity (less host growth inhibition)
Details: time post-induction: 4.5 h; library: site-saturation at positions 5, 18, 19, 20
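Note: peptides expressed intracellularly from a pBAD plasmid library in pooled LB shake-flask culture, induced with 0.3% L-arabinose, DNA abundance read by NGS, three biological replicates, DESeq2 with apeglm shrinkage.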

First: RRIRNRPPRLPRPRPRPTDMPRP
Second: RRIRARPPRLPRPRPRPEMPPRP
The “shrunken log2 fold change” value of the first is lower: -0.0588 for the first, 0.981 for the second.

RRIRCRPPRLPRPRPRPTVCPRP and RRIRVRPPRLPRPRPRPDEIPRP are within 0.2 log units of each other in “shrunken log2 fold change” value: -0.0924 for the first, 0.0183 for the second.

RRIRHRPPRLPRPRPRPMWTPRP and RRIRLRPPRLPRPRPRPEELPRP are within 0.2 log units of each other in “shrunken log2 fold change” value: -0.126 for the first, 0.068 for the second.

RRIRYRPPRLPRPRPRPGRQPRP and RRIRSRPPRLPRPRPRPQRDPRP are within 0.2 log units of each other in “shrunken log2 fold change” value: -0.031 for the first, -0.117 for the second.

Compared with RRIRIRPPRLPRPRPRPDHWPRP, RRIRHRPPRLPRPRPRPIHIPRP is lower in “shrunken log2 fold change” value: 0.0629 for the first, -0.733 for the second.

Going from RRIRMRPPRLPRPRPRPEMLPRP to RRIRTRPPRLPRPRPRPVLRPRP, the “shrunken log2 fold change” value falls from 3.45 to 0.11.

Compared with RRIRYRPPRLPRPRPRPDDAPRP, RRIRWRPPRLPRPRPRPIQQPRP is higher in “shrunken log2 fold change” value: -0.199 for the first, 0.0331 for the second.

RRIRIRPPRLPRPRPRPNTIPRP and RRIRLRPPRLPRPRPRPVIRPRP are within 0.2 log units of each other in “shrunken log2 fold change” value: -0.355 for the first, -0.502 for the second.

First: RRIRIRPPRLPRPRPRPWIEPRP
Second: RRIRKRPPRLPRPRPRPAQQPRP
The “shrunken log2 fold change” value of the first is lower: -0.186 for the first, 0.344 for the second.

RRIRCRPPRLPRPRPRPLCKPRP and RRIRWRPPRLPRPRPRPSDMPRP are within 0.2 log units of each other in “shrunken log2 fold change” value: -0.541 for the first, -0.354 for the second.

First: RRIRSRPPRLPRPRPRPLWGPRP
Second: RRIRWRPPRLPRPRPRPKKHPRP
The “shrunken log2 fold change” value of the first is lower: -0.00343 for the first, 0.293 for the second.

First: RRIRERPPRLPRPRPRPWEKPRP
Second: RRIRPRPPRLPRPRPRPFCYPRP
The “shrunken log2 fold change” value of the first is higher: -0.00277 for the first, -0.26 for the second.

Going from RRIRSRPPRLPRPRPRPFSRPRP to RRIRMRPPRLPRPRPRPGEQPRP, the “shrunken log2 fold change” value rises from -0.347 to 1.48.

Going from RRIRHRPPRLPRPRPRPPWCPRP to RRIRNRPPRLPRPRPRPPYNPRP, the “shrunken log2 fold change” value falls from 0.0341 to -0.627.

RRIRVRPPRLPRPRPRPYAMPRP and RRIRPRPPRLPRPRPRPAMCPRP are within 0.2 log units of each other in “shrunken log2 fold change” value: -0.11 for the first, -0.0389 for the second.

Compared with RRIRGRPPRLPRPRPRPVGIPRP, RRIRTRPPRLPRPRPRPQISPRP is lower in “shrunken log2 fold change” value: 0.414 for the first, -0.024 for the second.

RRIRRRPPRLPRPRPRPNNYPRP and RRIRERPPRLPRPRPRPCIGPRP are within 0.2 log units of each other in “shrunken log2 fold change” value: -0.378 for the first, -0.479 for the second.

First: RRIRSRPPRLPRPRPRPFWLPRP
Second: RRIRSRPPRLPRPRPRPQTCPRP
The “shrunken log2 fold change” value of the first is higher: 0.26 for the first, -0.0978 for the second.

Compared with RRIRGRPPRLPRPRPRPPKAPRP, RRIRPRPPRLPRPRPRPRCRPRP is lower in “shrunken log2 fold change” value: 0.63 for the first, 0.217 for the second.

Going from RRIRQRPPRLPRPRPRPFACPRP to RRIRWRPPRLPRPRPRPRMVPRP, the “shrunken log2 fold change” value rises from -0.111 to 0.155.

Compared with RRIRKRPPRLPRPRPRPETAPRP, RRIRNRPPRLPRPRPRPDHFPRP is lower in “shrunken log2 fold change” value: 1.21 for the first, -0.0062 for the second.

Compared with RRIRERPPRLPRPRPRPKHFPRP, RRIRIRPPRLPRPRPRPNYGPRP is higher in “shrunken log2 fold change” value: -0.248 for the first, 0.0426 for the second.

Going from RRIRHRPPRLPRPRPRPFANPRP to RRIRIRPPRLPRPRPRPMQPPRP, the “shrunken log2 fold change” value rises from -0.483 to -0.0593.

RRIRKRPPRLPRPRPRPWQKPRP and RRIRVRPPRLPRPRPRPGSHPRP are within 0.2 log units of each other in “shrunken log2 fold change” value: 0.121 for the first, 0.105 for the second.

Compared with RRIRVRPPRLPRPRPRPRICPRP, RRIRMRPPRLPRPRPRPMHHPRP is higher in “shrunken log2 fold change” value: -0.229 for the first, 0.0123 for the second.

RRIRCRPPRLPRPRPRPHANPRP and RRIRHRPPRLPRPRPRPGDAPRP are within 0.2 log units of each other in “shrunken log2 fold change” value: -0.0108 for the first, 0.0297 for the second.

First: RRIRQRPPRLPRPRPRPIRGPRP
Second: RRIRIRPPRLPRPRPRPFHDPRP
The “shrunken log2 fold change” value of the first is higher: -0.0547 for the first, -0.374 for the second.

RRIRNRPPRLPRPRPRPCGHPRP and RRIRDRPPRLPRPRPRPWRRPRP are within 0.2 log units of each other in “shrunken log2 fold change” value: 0.0743 for the first, 0.0906 for the second.

First: RRIRARPPRLPRPRPRPEDAPRP
Second: RRIRTRPPRLPRPRPRPSDNPRP
The “shrunken log2 fold change” value of the first is higher: 0.894 for the first, -0.697 for the second.

First: RRIRQRPPRLPRPRPRPHCHPRP
Second: RRIRTRPPRLPRPRPRPPNPPRP
The “shrunken log2 fold change” value of the first is lower: -0.164 for the first, 0.442 for the second.

RRIRKRPPRLPRPRPRPHYCPRP and RRIRSRPPRLPRPRPRPPTLPRP are within 0.2 log units of each other in “shrunken log2 fold change” value: -0.00783 for the first, 0.0631 for the second.

RRIRQRPPRLPRPRPRPQHWPRP and RRIRRRPPRLPRPRPRPMTGPRP are within 0.2 log units of each other in “shrunken log2 fold change” value: 0.0488 for the first, 0.0638 for the second.

Going from RRIRPRPPRLPRPRPRPWNWPRP to RRIRWRPPRLPRPRPRPMVRPRP, the “shrunken log2 fold change” value falls from 0.3 to 0.0171.

Compared with RRIRARPPRLPRPRPRPCHPPRP, RRIRGRPPRLPRPRPRPVCSPRP is higher in “shrunken log2 fold change” value: 0.194 for the first, 0.613 for the second.

First: RRIRNRPPRLPRPRPRPCMEPRP
Second: RRIRARPPRLPRPRPRPRGCPRP
The “shrunken log2 fold change” value of the first is lower: -0.206 for the first, 0.822 for the second.

RRIRNRPPRLPRPRPRPFPTPRP and RRIRDRPPRLPRPRPRPSEWPRP are within 0.2 log units of each other in “shrunken log2 fold change” value: 0.00541 for the first, -0.0637 for the second.

Compared with RRIRNRPPRLPRPRPRPECWPRP, RRIRTRPPRLPRPRPRPYYMPRP is lower in “shrunken log2 fold change” value: 0.616 for the first, -1.06 for the second.

With RRIRKRPPRLPRPRPRPQGAPRP the “shrunken log2 fold change” value was 0.451.

From the supplement of paper PMC9112550, “Optimization of the antimicrobial peptide Bac7 by deep mutational scanning” (BMC Biology, 2022)
